From PMC4176352, “Essential role of eIF5-mimic protein in animal development is linked to control of ATF4 expression” (Nucleic Acids Research, 2014) come the findings set out here.

The chains are these.
B1: polyhistidine-tagged full-length human 5MP1 (natural protein, UniProt Q9Y6E2 1-419, looked up)
chain: MNKHQKPVLTGQRFKTRKRDEKEKFEPTVFRDTLVQGLNEAGDDLEAVAKFLDSTGSRLDYRRYADTLFDILVAGSMLAPGGTRIDDGDKTKMTNHCVFSANEDHETIRNYAQVFNKLIRRYKYLEKAFEDEMKKLLLFLKAFSETEQTKLAMLSGILLGNGTLPATILTSLFTDSLVKEGIAASFAVKLFKAWMAEKDANSVTSSLRKANLDKRLLELFPVNRQSVDHFAKYFTDAGLKELSDFLRVQQSLGTRKELQKELQERLSQECPIKEVVLYVKEEMKRNDLPETAVIGLLWTCIMNAVEWNKKEELVAEQALKHLKQYAPLLAVFSSQGQSELILLQKVQEYCYDNIHFMKAFQKIVVLFYKADVLSEEAILKWYKEAHVAKGKSVFLDQMKKFVEWLQNAEEESESEGEEN
notes: human eIF5-mimic protein 1 (5MP1, BZW2), full length; Preparation of the construct is described in the Supplementary file; also called BZW2; eIF5-mimic protein 1
B2: polyhistidine-tagged human 5MP1 C-terminal domain (aa. 245–419) (domain or fragment, UniProt Q9Y6E2 245-419, looked up)
chain: FLRVQQSLGTRKELQKELQERLSQECPIKEVVLYVKEEMKRNDLPETAVIGLLWTCIMNAVEWNKKEELVAEQALKHLKQYAPLLAVFSSQGQSELILLQKVQEYCYDNIHFMKAFQKIVVLFYKADVLSEEAILKWYKEAHVAKGKSVFLDQMKKFVEWLQNAEEESESEGEEN
notes: human eIF5-mimic protein 1 (5MP1, BZW2), CTD, aa; 245-419; Preparation of the construct is described in the Supplementary file; also called 5MP1-CTD; CTD
B3: human eIF2β 53–136 (domain or fragment, UniProt P20042 53-136, looked up)
chain: DLEADEEDTRKKDASDDLDDLNFFNQKKKKKKTKKIFDIDEAEEGVKDLKIESDVQEPTEPEDDLDIMLGNKKKKKKNVKFPDE
notes: human eIF2 beta subunit, residues 53-136, carrying two K-boxes; also called eIF2β_(53–135)

Common to all, as to experiment: ITC; a solution of eIF2β 53–136 injected with human 5MP1 constructs; performed as described previously (16)
Holding throughout (conditions): both partners purified
In general terms: Isothermal titration calorimetry measures the heat released or taken up as one component is titrated into another.

The test “human eIF2β 53–136” concerns the target B3.
Test [1] deals with B2.
Test [2] concerns the target B1.

The term stoichiometry N denotes a count of units in the complex or per binding partner. In general, Kd refers to the equilibrium constant for the complex coming apart. Low values mean a tighter complex, high ones a looser complex.

As for B1, the “stoichiometry N” value with human eIF2β 53–136 is 1. The same measure, in the same setting: as for B2, the figure is 0.5. For B3, the equilibrium dissociation constant (Kd) in test [1] is roughly 5 µM; in test [2] it was roughly 2 µM.
